# According to patent publication US20110263454A1, “Methods of Identifying Functional Characteristics of Promoters, Transcription Modifying Proteins and Transcription Modulating Agents” (Salk Institute for Biological Studies, priority 2008, published 2011):
# B1: RVRa: Rev-Erb α (NR1D1), cDNA driver (protein, UniProt P20393 1-614, looked up)
# Nuclear receptor subfamily 1 …: MTTLDSNNNTGGVITYIGSSGSSPSRTSPESLYSDNSNGSFQSLTQGCPTYFPPSPTGSLTQDPARSFGSIPPSLSDDGSPSSSSSSSSSSSSFYNGSPPGSLQVAMEDSSRVSPSKSTSNITKLNGMVLLCKVCGDVASGFHYGVHACEGCKGFFRRSIQQNIQYKRCLKNENCSIVRINRNRCQQCRFKKCLSVGMSRDAVRFGRIPKREKQRMLAEMQSAMNLANNQLSSQCPLETSPTQHPTPGPMGPSPPPAPVPSPLVGFSQFPQQLTPPRSPSPEPTVEDVISQVARAHREIFTYAHDKLGSSPGNFNANHASGSPPATTPHRWENQGCPPAPNDNNTLAAQRHNEALNGLRQAPSSYPPTWPPGPAHHSCHQSNSNGHRLCPTHVYAAPEGKAPANSPRQGNSKNVLLACPMNMYPHGRSGRTVQEIWEDFSMSFTPAVREVVEFAKHIPGFRDLSQHDQVTLLKAGTFEVLMVRFASLFNVKDQTVMFLSRTTYSLQELGAMGMGDLLSAMFDFSEKLNSLALTEEELGLFTAVVLVSADRSGMENSASVEQLQETLLRALRALVLKNRPLETSRFTKLLLKLPDLRTLNNMHSEKLLSFRVDAQ
# B2: RVRb: Rev-Erb β (NR1D2, alternative name RVR), cDNA driver (protein, UniProt Q14995 1-579, looked up)
# Nuclear receptor subfamily 1 …: MEVNAGGVIAYISSSSSASSPASCHSEGSENSFQSSSSSVPSSPNSSNSDTNGNPKNGDLANIEGILKNDRIDCSMKTSKSSAPGMTKSHSGVTKFSGMVLLCKVCGDVASGFHYGVHACEGCKGFFRRSIQQNIQYKKCLKNENCSIMRMNRNRCQQCRFKKCLSVGMSRDAVRFGRIPKREKQRMLIEMQSAMKTMMNSQFSGHLQNDTLVEHHEQTALPAQEQLRPKPQLEQENIKSSSPPSSDFAKEEVIGMVTRAHKDTFMYNQEQQENSAESMQPQRGERIPKNMEQYNLNHDHCGNGLSSHFPCSESQQHLNGQFKGRNIMHYPNGHAICIANGHCMNFSNAYTQRVCDRVPIDGFSQNENKNSYLCNTGGRMHLVCPMSKSPYVDPHKSGHEIWEEFSMSFTPAVKEVVEFAKRIPGFRDLSQHDQVNLLKAGTFEVLMVRFASLFDAKERTVTFLSGKKYSVDDLHSMGAGDLLNSMFEFSEKLNALQLSDEEMSLFTAVVLVSADRSGIENVNSVEALQETLIRALRTLIMKNHPNEASIFTKLLLKLPDLRSLNNMHSEELLAFKVHP
# What was measured:
# hPPARg2 promoter = test: NHR-promoter luciferase screen, hPPARg2 promoter; format: cell-based, human; conditions: for Luc. act., normalized to lacZ / Normalized Luc. act., normalized to control: PPARG2 promoter, hormone receptor with or without its ligand; for Normalized Luc. act., normalized to control: relative to control; for Results of assays of transcription factor (+/- ligand) with hPPARg2: Table 6d, luciferase activity relative to control (control = 1.00)
# Protocol: (§1) The use, feasibility, and reproducibility of the functional NHR-promoter screen in a 48-well format have been tested validated. Briefly, there were co-expressed 50 ng of each NHR/NHR homodimer or NHR/RXR heterodimer with 100 ng promoter/luciferase construct and 50 ng of LacZ (as a control for transfection efficiency) in CV-1 cells using Fugene HD (Roche) as a transfection reagent (alternatively or additionally, a CMV-YFP construct can be used as a transfection control). Each of the nuclear hormone receptors that were used in these experiments was cloned into a pcDNA3.1 vector and comprised a C-terminally linked V5H6 tag. Twenty-four hours after transfection, appropriate ligands were added, where applicable, (see Table 5 for various ligands and concentrations and after 48 hrs, samples were assayed for luciferase and LacZ activity. To measure for luciferase activity 15 ul of sample was added to 30 ul of luciferase buffer (20 mM tricine, 1.07 mM MgCarbonate, 2.67 mM MgSulfate, 0.1 mM Naz-EDTA, 5 mM DTT, 5 mM ATP, 0.15 mg/ml CoA, 0.5 mM Luciferin), mixed briefly, and run in a Perkin Elmer Victor 5 luminometer. Thus, the functional NHR-promoter screen was used to observe the transcriptional activity of 29 promoters from various physiological pathways including inflammation, lipid and sugar metabolism, cholesterol transport, xenobiotic metabolism, and circadian rhythm.
# (§2) The promoters that facilitate transcription of the indicated gene products that were tested using the protocols described herein are listed in the first row of the table. The nuclear hormone receptors and, where applicable, ligands that were assayed for their transcriptional effects on the promoters are listed in the first column of the table. The data represent the luciferase activity of each sample normalized to both the lacZ activity of that sample and to a control, e.g., no NHR or ligand, as customary in the art. As described previously, these normalizations allow the transcriptional activity of each reporter cell to be compared to other samples.
# (§3) Tables 7-40 show the transcriptional effects of the hormone receptors, and, where applicable, ligands (orphan receptors are screened without ligand), on each individual promoter. […] The control data of each table are shown in their last rows.
# hTNFa promoter = test: NHR-promoter luciferase screen, hTNFa promoter; format: cell-based, human; conditions: for Luc. act., normalized to lacZ / Normalized Luc. act., normalized to control: TNFa promoter, HR component without or with ligand; for hTNFa promoter reporter activity: transcription factor +/- ligand, control = 1.00
# Protocol: as §1, §2, §3
# Bmal1 promoter = test: NHR-promoter luciferase screen, Bmal1 promoter; format: cell-based, mouse; conditions: for Luc. act., normalized to lacZ / Normalized Luc. act., normalized to control: Bmal1 promoter, HR component without or with ligand; for regulation of the Bmal1 promoter: FIG. 2c, in words; for mBmal1 promoter reporter activity: transcription factor +/- ligand, control = 1.00
# Protocol: as §1, §2, §3
# mNPY promoter = test: NHR-promoter luciferase screen, mNPY promoter; format: cell-based, mouse; conditions: for Results of assays of transcription factor (+/- ligand) with mNPY: Table 6d, luciferase activity relative to control (control = 1.00); for Luc. act., normalized to lacZ / Normalized Luc. act., normalized to control: mNPY promoter, HR component with or without ligand; for Normalized Luc. act., normalized to control: relative to control
# Protocol: as §1, §2, §3
# hG6PD promoter = test: NHR-promoter luciferase screen, hG6PD promoter; format: cell-based, human; conditions: for Luc. act., normalized to lacZ / Normalized Luc. act., normalized to control: G6PD promoter reporter, co-transfected HR, without or with its ligand; for Normalized Luc. act., normalized to control: relative to control; for luciferase activity normalized to lacZ activity and to a control, hG6PD: hG6PD promoter-luciferase, CV-1 cells, NHR +/- ligand, control = 1.00
# Protocol: as §1, §2, §3
# mABCA1 promoter = test: NHR-promoter luciferase screen, mABCA1 promoter; format: cell-based, mouse; conditions: for Luc. act., normalized to lacZ / Normalized Luc. act., normalized to control: ABCA1 promoter, hormone receptor with or without its ligand; for Normalized Luc. act., normalized to control: relative to control; for mABCA1 promoter reporter activity: transcription factor +/- ligand, control = 1.00
# Protocol: as §1, §2, §3
Molecule,"Luc. act., normalized to lacZ (hPPARg2 promoter)","Normalized Luc. act., normalized to control (hPPARg2 promoter)",Results of assays of transcription factor (+/- ligand) with hPPARg2 (hPPARg2 promoter),"Luc. act., normalized to lacZ (hTNFa promoter)","Normalized Luc. act., normalized to control (hTNFa promoter)",hTNFa promoter reporter activity (hTNFa promoter),"Luc. act., normalized to lacZ (Bmal1 promoter)","Normalized Luc. act., normalized to control (Bmal1 promoter)",regulation of the Bmal1 promoter (Bmal1 promoter),mBmal1 promoter reporter activity (Bmal1 promoter),Results of assays of transcription factor (+/- ligand) with mNPY (mNPY promoter),"Luc. act., normalized to lacZ (mNPY promoter)","Normalized Luc. act., normalized to control (mNPY promoter)","Luc. act., normalized to lacZ (hG6PD promoter)","Normalized Luc. act., normalized to control (hG6PD promoter)","luciferase activity normalized to lacZ activity and to a control, hG6PD (hG6PD promoter)","Luc. act., normalized to lacZ (mABCA1 promoter)","Normalized Luc. act., normalized to control (mABCA1 promoter)",mABCA1 promoter reporter activity (mABCA1 promoter)
B1,1.5,0.8,0.76,1069.4,1.1,1.09,2.5,0.2,specific repression,0.16,1.09,91.9,1.1,45.9,1.2,1.23,46.3,8.3,8.25
B2,1.0,0.5,0.48,1017.6,1.0,1.04,0.8,0.1,specific repression,0.05,1.67,140.6,1.7,55.5,1.5,1.48,36.8,6.6,6.55
